One assay addresses biotinylated canine FcRn (canine, UniProt A0A8I3PFR8 25-347, biotinylated (site not stated)). In words: ELISA pH 5.5, fusion protein coated, biotinylated canine FcRn titrated. The protocol:
Insulin-Fc fusion proteins comprising Fc fragments of canine or feline origin were diluted to 10 μg/ml in sodium bicarbonate pH 9.6 buffer and coated in duplicate on Maxisorb ELISA plate strips for 1-2 hours at RT. The strips were then washed 4 times with PBST (PBS/0.1% Tween-20) buffer and blocked with Superblock blocking reagent (ThermoFisher). Strips for FcRn binding were then washed again twice with pH 5.5 MES/NaCl/Tween (50 mM MES/l50 mM NaCl/0.1% Tween-20) buffer before addition of the FcRn reagent (biotinylated canine FcRn; Immunitrack). […] Serial dilutions (1:3× dilutions) of biotinylated FcRn reagent were prepared in pH 5.5 MES/NaCl/Tween/10% Superblock buffer at concentrations from 1000 ng/ml to 0.45 ng/ml and loaded at 100 μL/well using a multichannel pipettor onto the strips coated with the insulin-Fc fusion protein compounds. The assay plate was then incubated for 1 hour at room temperature. FcRn binding strips were washed 4 times with pH 5.5 MES/NaCl/Tween buffer and then loaded with 100 μl/well […] diluted 1:10000 in pH 5.5 MES/NaCl/10% Superblock buffer. After incubating for 45 minutes, strips were washed again 4 times with pH 5.5 MES/NaCl/Tween buffer. TMB was finally added to reveal the bound biotinylated-canine FcRn reagent, and the color development was stopped with the ELISA stop reagent. The plate was read in an ELISA plate reader at a wavelength of 450 nm. The OD values (proportional to the binding of canine-FcRn to the insulin-Fc fusion protein test compounds) were plotted against log concentrations of FcRn added to each well to generate binding curves using GraphPad Prism software. EC50 values for each binding curve were calculated to compare between different compounds.

Assay [1] deals with T1, human insulin receptor (human, UniProt P06213 28-1382).
T1 construct: whole, on cells; Endogenous receptor on IM-9 cells; also called IR
T1 sequence (P06213 28-1382): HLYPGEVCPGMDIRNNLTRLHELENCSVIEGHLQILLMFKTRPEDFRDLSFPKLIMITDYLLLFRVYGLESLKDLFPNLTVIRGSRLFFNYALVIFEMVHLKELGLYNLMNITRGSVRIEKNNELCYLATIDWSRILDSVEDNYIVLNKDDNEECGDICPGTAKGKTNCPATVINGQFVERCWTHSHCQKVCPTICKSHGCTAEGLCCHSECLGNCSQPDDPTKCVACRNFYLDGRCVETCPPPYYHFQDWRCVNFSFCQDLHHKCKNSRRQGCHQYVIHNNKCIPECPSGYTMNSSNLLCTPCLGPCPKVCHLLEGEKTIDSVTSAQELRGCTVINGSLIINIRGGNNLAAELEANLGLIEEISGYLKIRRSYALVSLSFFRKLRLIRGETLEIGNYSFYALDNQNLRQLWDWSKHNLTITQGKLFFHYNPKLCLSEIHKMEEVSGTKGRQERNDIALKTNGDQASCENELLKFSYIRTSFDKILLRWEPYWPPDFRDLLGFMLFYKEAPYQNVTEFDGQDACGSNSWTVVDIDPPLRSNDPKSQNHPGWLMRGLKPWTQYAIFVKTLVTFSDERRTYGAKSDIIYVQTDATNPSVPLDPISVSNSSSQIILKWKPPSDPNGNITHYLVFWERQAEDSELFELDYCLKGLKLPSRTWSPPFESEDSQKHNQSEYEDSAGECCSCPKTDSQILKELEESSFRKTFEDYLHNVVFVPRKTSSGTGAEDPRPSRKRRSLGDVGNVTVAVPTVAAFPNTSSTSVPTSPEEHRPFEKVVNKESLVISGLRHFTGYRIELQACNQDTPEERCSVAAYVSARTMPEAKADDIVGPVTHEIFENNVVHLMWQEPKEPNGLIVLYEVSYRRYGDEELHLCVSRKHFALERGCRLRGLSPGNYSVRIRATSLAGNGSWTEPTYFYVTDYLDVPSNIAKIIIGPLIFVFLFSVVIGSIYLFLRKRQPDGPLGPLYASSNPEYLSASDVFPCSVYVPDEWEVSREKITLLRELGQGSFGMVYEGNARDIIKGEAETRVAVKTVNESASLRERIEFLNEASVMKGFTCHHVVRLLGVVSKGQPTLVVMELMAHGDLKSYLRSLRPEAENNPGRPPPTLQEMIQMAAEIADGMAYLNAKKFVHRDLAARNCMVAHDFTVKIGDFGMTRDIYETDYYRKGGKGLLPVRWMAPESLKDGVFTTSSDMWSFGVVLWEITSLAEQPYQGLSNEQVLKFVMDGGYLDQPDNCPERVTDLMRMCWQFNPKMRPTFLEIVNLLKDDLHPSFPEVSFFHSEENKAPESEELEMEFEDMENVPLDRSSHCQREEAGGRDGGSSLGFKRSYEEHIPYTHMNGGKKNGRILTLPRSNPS
In words: competition with biotinylated RHI on IM-9 cells, flow cytometry, 4 C. Here is the method:
Cultures of IM-9 cells were centrifuged at 250×g (˜1000 rpm) for 10 min to pellet the cells. Cells were washed once with HBSS or PBS buffer, resuspended in cold FACS staining medium (HBSS/2 mM EDTA/0.1% Na-azide+4% horse serum) to a concentration of 8×10⁶ cells/mL and kept on ice or 4° C. until test solutions were made. The insulin-Fc protein was diluted in FACS buffer in 1:3 serial dilutions as 2× concentrations in 1.2 mL tubes (approx. 60 μL volume of each dilution), and the solutions were kept cold on ice until ready for pipetting.
40 μL of an IM-9 cell suspension (8×10⁶ cells/mL) was then added to each well by multichannel pipette, mixed again gently and incubated on ice for 30 min to allow competitive binding on the insulin receptor on IM-9 cells. […]
The V-bottom plates containing cells were then analyzed on a Guava 8-HT flow cytometer (Millipore). Biotinylated-RHI binding to insulin receptor was quantitated by the median fluorescence intensity (MFI) of the cells on the FACS FL-2 channel for each concentration of the test compound. […] The % inhibition by test compounds of biotinylated-RHI binding on IM-9 cells was plotted against log concentrations of the test compound, and the resulting IC50 values were calculated using GraphPad Prism (GraphPad Software, La Jolla, CA) for the test compounds.
(A flow cytometer gives signals particle by particle.)

The target of assay [2] is T1, human insulin receptor. The description is as above. Here is the method: (§1) 40 μL of an IM-9 cell suspension (8×10⁶ cells/mL) was then added to each well by multichannel pipette, mixed again gently and incubated on ice for 30 min to allow competitive binding on the insulin receptor on IM-9 cells. Cells were then washed twice with 275 μL of ice-cold FACS wash buffer (HBSS/2 mM EDTA/0.1% Na-azide+0.5% horse serum) by centrifuging the V-bottom plate at 3000 rpm for 3 min and aspirating the supernatant. Cells were then resuspended in 40 μL of FACS staining medium containing 1:100 diluted Streptavidin-PE (Life Technologies) for 20 min on ice. Cells were then washed once with 275 μL of ice-cold FACS buffer and finally fixed with 3% paraformaldehyde for 10 min at room temp. Cells were then washed once with 275 μL of ice-cold FACS buffer and resuspended in 250 μl of FACS buffer for analysis.
The V-bottom plates containing cells were then analyzed on a Guava 8-HT flow cytometer (Millipore). Biotinylated-RHI binding to insulin receptor was quantitated by the median fluorescence intensity (MFI) of the cells on the FACS FL-2 channel for each concentration of the test compound. […] The % inhibition by test compounds of biotinylated-RHI binding on IM-9 cells was plotted against log concentrations of the test compound, and the resulting IC50 values were calculated using GraphPad Prism (GraphPad Software, La Jolla, CA) for the test compounds. […]
This is another data set of the same source.

In assay [3] the target is T1, human insulin receptor. Described as above. The protocol:
as §1
The V-bottom plates containing cells were then analyzed on a Guava 8-HT flow cytometer (Millipore). Biotinylated-RHI binding to insulin receptor was quantitated by the median fluorescence intensity (MFI) of the cells on the FACS FL-2 channel for each concentration of the test compound. Control wells were labeled only with biotinylated-RHI and were used to calculate the percent (%) inhibition resulting from each test compound concentration. The % inhibition by test compounds of biotinylated-RHI binding on IM-9 cells was plotted against log concentrations of the test compound, and the resulting IC50 values were calculated using GraphPad Prism (GraphPad Software, La Jolla, CA) for the test compounds. Lower IC50 values of the test compound therefore indicate greater levels of biotinylated-RHI inhibition at lower concentrations indicating stronger binding of the insulin-Fc fusion protein to the insulin receptor. A control compound, such as unlabeled recombinant human insulin (RHI) was also used as an internal standard to generate an RHI IC50 against which a given compound IC50 could be ratioed (IC50(compound)/IC50(RHI)). Lower IC50 ratios have more similar binding to RHI (stronger binding to insulin receptor), while higher IC50 ratios have weaker binding to the insulin receptor relative to RHI.
This is another data set of the same source.

The target in assay [4] is T2, biotinylated recombinant human Fc(gamma) receptor I (human, UniProt P12314 16-288, biotinylated (site not stated)).
T2 construct: Bought reagent, used as surrogate for canine/feline Fc(gamma)RI; also called rhFc(gamma) receptor I; Fc(gamma)RI
T2 sequence (P12314 16-288 limits assumed): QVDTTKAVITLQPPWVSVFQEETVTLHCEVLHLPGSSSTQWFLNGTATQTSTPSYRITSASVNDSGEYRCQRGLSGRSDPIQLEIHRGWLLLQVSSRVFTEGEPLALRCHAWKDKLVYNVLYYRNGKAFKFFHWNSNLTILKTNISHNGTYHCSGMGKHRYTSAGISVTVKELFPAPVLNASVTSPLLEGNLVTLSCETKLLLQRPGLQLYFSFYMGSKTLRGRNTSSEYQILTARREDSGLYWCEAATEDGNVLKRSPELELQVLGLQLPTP
In words: ELISA, fusion protein coated, biotinylated rhFc(gamma)RI at 3000 ng/mL, pH 7.4. Here is the method:
(§2) The binding of insulin-Fc fusion proteins to the Fc(gamma) receptor I at pH 7.4 was conducted using an ELISA assay as follows. Since neither canine nor feline Fc(gamma) receptor I was not commercially available, human Fc(gamma) receptor I (i.e., rhFc(gamma) receptor I) was used as a surrogate mammalian receptor. Insulin-Fc compounds were diluted to 10 μg/mL in sodium bicarbonate buffer at pH 9.6 and coated on Maxisorp (Nunc) microtiter plates overnight at 4° C., after which the microplate strips were washed 5 times with PBST (PBS/0.05% Tween-20) buffer and blocked with Superblock blocking reagent (ThermoFisher). Serial dilutions of biotinylated rhFc(gamma) receptor I (recombinant human Fc(gamma)R-I; R&D Systems) were prepared in PBST/10% Superblock buffer from 6000 ng/mL to 8.2 ng/mL and loaded at 100 μL/well onto the microplate strips coated with insulin-Fc fusion protein. The microtiter plate was incubated for 1 hour at room temperature after which the microplate strips were washed 5 times with PBST and then loaded with 100 μL/well of streptavidin-HRP diluted 1:10000 in PBST/10% Superblock buffer. After incubating for 45 min, the microplate strips were washed again 5 times with PBST. TMB was added to reveal the bound Fc(gamma) receptor I proteins and stopped with ELISA stop reagent (Boston Bioproducts). The plate was read in an ELISA plate reader at 450 nm, and the OD values (proportional to the binding of rhFc(gamma) receptor I to insulin-Fc protein) were plotted against log concentrations of rhFc(gamma) receptor I added to each well to generate binding curves using GraphPad Prism software.
Finally, select compounds were tested for their likelihood to interact with the immune system by measuring their Fc(gamma) receptor binding activity according to the procedure of Example 8. Table 19 compares the Fc(gamma) receptor I binding of these insulin-Fc fusion proteins with the Fc(gamma) receptor binding of the insulin-Fc fusion protein of SEQ ID NO: 52.
On the technique in general: An ELISA detects its analyte on a solid surface through an enzyme-linked reagent.

Assay [5] deals with T1, human insulin receptor. In words: competition with biotinylated RHI on IM-9 cells, flow cytometry, 4 C. This is another data set of the same source.
Assay [6] deals with T2, biotinylated recombinant human …. In words: ELISA, fusion protein coated, biotinylated rhFc(gamma)RI in solution, pH 7.4. Here is the method:
as §2
The insulin-Fc fusion protein of SEQ ID NO: 40 was synthesized in HEK293 cells according to the procedure of Example 1 and purified using a Protein A column according to Example 3. The structure of the insulin-Fc fusion protein was confirmed according to Example 4 by non-reducing and reducing CE-SDS, and the sequence was further identified by LC-MS with glycan removal according to Example 5. The protein yield was 174 mg/L at this stage. The % homodimer for the sequence was measured by size-exclusion chromatography according to Example 6 and was determined to be 98.9% resulting in a homodimer titer of 172 mg/L which meets the manufacturing design criteria.

Changes are numbered by the printed parent chain. Read-outs that look alike come from different tables or passages of the source.

Chain of biotinylated canine FcRn (A0A8I3PFR8 entry or part of it): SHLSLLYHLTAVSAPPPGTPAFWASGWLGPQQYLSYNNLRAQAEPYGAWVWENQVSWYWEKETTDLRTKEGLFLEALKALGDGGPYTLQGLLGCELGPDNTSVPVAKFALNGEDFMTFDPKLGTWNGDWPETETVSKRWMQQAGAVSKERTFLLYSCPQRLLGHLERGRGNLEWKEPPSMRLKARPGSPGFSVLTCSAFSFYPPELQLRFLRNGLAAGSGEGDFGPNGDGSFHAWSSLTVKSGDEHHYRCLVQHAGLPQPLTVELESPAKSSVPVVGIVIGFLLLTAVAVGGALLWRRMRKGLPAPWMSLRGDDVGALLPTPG

B1: insulin-Fc fusion protein of SEQ ID NO: 32 (Fc fusion)
chain: FVNQHLCGSHLVEALELVCGERGFHYGGGGGGSGGGGGIVEQCCTSTCSLDQLENYCGGGGGQGGGGQGGGGQGGGGGDCPKCPAPEMLGGPSVFIFPPKPKDTLLIARTPEVTCVVVDLDPEDPEVQISWFVDGKQMQTAKTQPREEQFNGTYRVVSVLPIGHQDWLKGKQFTCKVNNKALPSPIERTISKARGQAHQPSVYVLPPSREELSKNTVSLTCLIKDFFPPDIDVEWQSNGQQEPESKYRTTPPQLDEDGSYFLYSKLSVDKSRWQRGDTFICAVMHEALHNHYTQESLSHSPG
notes: homodimer; also called 218d
B1 yielded an EC50 in the assay with biotinylated canine FcRn of 0.599 µg/mL. This molecule gave an IC50 with human insulin receptor [1] of 2340 nM. In addition, in the assay with human insulin receptor [2], the IC50 came to 2340 nM. The IC50 in the assay with human insulin receptor [3] was found to be 2340 nM. In addition, in assay [4], the “OD450 nm Minus Assay Background” value was determined as 0.311 OD450, the “OD450 nm at a Fc(gamma)RI concentration of 3000 (ng/mL)” value is 0.368 OD450 and the “Ratio to SEQ ID NO: 52” value amounted to 0.84 ratio.

B2: insulin-Fc fusion protein of SEQ ID NO: 38 (Fc fusion)
chain: FVNQHLCGSHLVEALELVCGERGFHYGGGGGGSGGGGGIVEQCCTSTCSLDQLENYCGGGGGQGGGGQGGGGQGGGGGDCPKCPPPEMLGGPSIFIFPPKPKDTLSISRTPEVTCLVVDLGPDDSDVQITWFVDNTQVYTAKTSPREEQFNSTYRVVSVLPILHQDWLKGKEFKCKVNSKSLPSPIERTISKDKGQPHEPQVYVLPPAQEELSRNKVSVTCLIEGFYPSDIAVEWEITGQPEPENNYRTTPPQLDSDGTYFLYSRLSVDRSRWQRGNTYTCSVSHEALHSHHTQKSLTQSPG
notes: homodimer
Molecule B2 registered an EC50 with biotinylated canine FcRn of 1.55 µg/mL. This molecule also gave an IC50 in the assay with human insulin receptor [5] of 2400 nM. The binding result in assay [6] is given as “binds”.

B3: insulin-Fc fusion protein of SEQ ID NO: 40 (Fc fusion)
chain: B2 chain with E16A, N151S
notes: homodimer
In the assay with biotinylated canine FcRn, B3 yielded an EC50 of 8.16 µg/mL. Moreover, the IC50 with human insulin receptor [5] came out at 4640 nM. Moreover, the “fold less Fc(gamma) receptor activity than SEQ ID NO: 38” value in assay [6] is roughly 4 fold less.

For orientation: EC50 means the concentration that produces a half-maximal response. Broadly, the IC50 is the point on the concentration scale where inhibition reaches its midpoint. Low readings indicate inhibition by little substance, high ones a need for much substance.
